Data reported in patent US20260201039A1.

Biological target: human CD28 in its native form displayed on the cell surface (human) (UniProt P10747)
Assay: cell-based or functional assay

IL2 secretion, PBMC of 20 donors on plate-coated protein, 72 h: < 80000 pg/mL
Substance: TGN1412 (IgG4) (antibody)
